Laboratory results published in publication PMC5095149, “Molecular cloning, heterologous expression, and enzymatic characterization of lysoplasmalogen‐specific phospholipase D from Thermocrispum sp” (FEBS Open Bio, 2016).

What was measured:
LyPls-PLD (rLyPls-PLD) = biological target: T1, LyPls-PLD (rLyPls-PLD) (Thermocrispum sp. RD004668, UniProt A0A0U4VTN7); assay: inhibition of LyPlsCho hydrolysis, choline oxidase/peroxidase colorimetric assay; type: biochemical; conditions: read-out: Relative activity (%) ^a
T1 construct: gene lyspls; pET24a(+), E. coli SHuffle T7, HisTrap purified; kinetics calculated as monomer
Source text: inhibition of LyPlsCho hydrolysis, choline oxidase/peroxidase colorimetric assay on LyPls-PLD (rLyPls-PLD)

purified protein = substrate: CCCCCCCCCCCCCCCC/C=C\OC[C@@H](O)COP(=O)(O)OCCN; assay: purified protein; conditions: 80 mM Tris/HCl pH 8.0, 50 °C
[1] = substrate: CCCCCCCCCCCCCCCC/C=C\OC[C@@H](O)COP(=O)([O-])OCC[N+](C)(C)C; assay: choline release, choline oxidase/peroxidase colorimetric assay; nonlinear Michaelis-Menten fit; type: biochemical, Thermocrispum sp. RD004668; conditions: 80 mM Tris/HCl pH 8.0, 50 °C, 2 mM CaCl2, 30 s
Source text: choline release, choline oxidase/peroxidase colorimetric assay; nonlinear Michaelis-Menten fit on LyPls-PLD (rLyPls-PLD)

[2] = substrate: CCCCCCCCCCCCCCCC/C=C\OC[C@@H](O)COP(=O)([O-])OCC[N+](C)(C)C; assay: choline release, choline oxidase/peroxidase colorimetric assay; Hanes-Woolf plot; type: biochemical, Thermocrispum sp. RD004668; conditions: 80 mM Tris/HCl pH 8.0, 50 °C, 2 mM CaCl2
Source text: choline release, choline oxidase/peroxidase colorimetric assay; Hanes-Woolf plot on LyPls-PLD (rLyPls-PLD)

CCCCCCCCCCCCCCCC(=O)OC[C@@H](O)COP(=O)([O-])OCC[N+](C)(C)C [LPC, 1‐palmitoyl‐2‐hydroxy‐sn‐glycero‐3‐phosphocholine]
activity at 4000 µM (LyPls-PLD (rLyPls-PLD)): 60.7 ± 0.5%

CCCCCCCCCCCCCCCCCC(=O)OC[C@@H](O)COP(=O)(O)O [LPA, 1‐stearoyl‐2‐hydroxy‐sn‐glycero‐3‐phosphate]
activity at 4000 µM (LyPls-PLD (rLyPls-PLD)): 89.8 ± 0.3%

B1: LyPls-PLD (rLyPls-PLD) (Thermocrispum sp. RD004668) (protein)
chain: TTRTTDNPWLDARVLNMAHAGGENEAPANTLYAFKRAVKLGANMLELDVQSTKDDQLVVIHNATVDQTTDGTGKVRDLTFEQVHELDAAYNFIPGRHAVPGEPPESYPLRGVRTGEKKPPPGYQPSDFAIPKLADVLEAFPRTPINIEIKGTSDADIPSFLHNAKLLARLLKKTGRTDFIVTSFNDLAVAKFHLLAPDIPIAPGMAGLAAYFLLGVKPMHGTVALQIPVRYQGLEIATPEFIRRAHADGYAVHVWFSGTAPDDEATYNRIIDSCADGLMPAYPALLERILDERGIERPGRPGVDPCG
notes: pET24a(+), E. coli SHuffle T7, HisTrap purified; kinetics calculated as monomer
Km (purified protein; 2 mM CaCl2, 3 min): 456 µM | kcat (purified protein; 2 mM CaCl2, 3 min): 4.51 s⁻¹ | kcat/Km (purified protein; 2 mM CaCl2, 3 min): 9900 M⁻¹ s⁻¹ | Km [1]: 13.2 µM | kcat [1]: 70.6 s⁻¹ | kcat/Km [1]: 5.34e+06 M⁻¹ s⁻¹

B2: LyPls-PLD (rLyPls-PLD) (Thermocrispum sp. RD004668; F211A) (protein)
chain: TTRTTDNPWLDARVLNMAHAGGENEAPANTLYAFKRAVKLGANMLELDVQSTKDDQLVVIHNATVDQTTDGTGKVRDLTFEQVHELDAAYNFIPGRHAVPGEPPESYPLRGVRTGEKKPPPGYQPSDFAIPKLADVLEAFPRTPINIEIKGTSDADIPSFLHNAKLLARLLKKTGRTDFIVTSANDLAVAKFHLLAPDIPIAPGMAGLAAYFLLGVKPMHGTVALQIPVRYQGLEIATPEFIRRAHADGYAVHVWFSGTAPDDEATYNRIIDSCADGLMPAYPALLERILDERGIERPGRPGVDPCG
notes: as for B1
Km (purified protein; 2 mM CaCl2): 281 µM | kcat (purified protein; 2 mM CaCl2): 2.88 s⁻¹ | kcat/Km (purified protein; 2 mM CaCl2): 10300 M⁻¹ s⁻¹ | Km [2]: 112 µM | kcat [2]: 24.8 s⁻¹ | kcat/Km [2]: 221000 M⁻¹ s⁻¹
